Test in all cases: Fluorometric determination of kinetic parameters for hydrolysis of substrates by enkephalinase
What all share (type): biochemical, rat

Substrate in series [1]: NCC(=O)N[C@@H](Cc1c[nH]c2ccccc12)C(=O)NCC(=O)O
Particulars: other: peptides I and II: HPLC analysis of 1 hr incubations of 1 mM peptide with 200 ng (I) or 50 ng (II) enzyme; pH 7.4; 37.0 °C. Here is the method:
(§1) Fluorescence measurements were made using a Perkin Elmer, model 650-10S spectrofluorometer, equipped with a temperature controlled cell-holder, maintained at 37° C. Two procedures were used. The first combined a 50 μl solution of dansylated peptide with 50 μl of purified rat kidney enkephalinase in 50 mM, pH 7.4 HEPES buffer, containing 0.1% Tween 20, yielding a substrate concentration from 1 μM to 1 mM. After 1 hour at 37° C., 500 μl of 0.1M EDTA were added to the tubes. The 600 μl mixture was transferred into a quartz cuvette, and fluorescence measured. For dansyl-Gly-Trp-Gly, the excitation wavelength was set at 280 nm and emission at 360 nm. For the two tyrosine containing peptides, the excitation wavelength was at 277 nm and emission at 315 nm. Both slits were set at 2 nm. Known amounts of Trp-Gly and Tyr-Gly, diluted in the same mixture (100 μl HEPES, Tween 20, 500 μl EDTA), were run in parallel as standards. The fluorescence in the incubation media could thus be related to the amounts of hydrolyzed substrates. The second procedure permitted continuous monitoring of the hydrolysis of the dansylated peptides. A 500 μl solution of substrate at appropriate concentration, in 50 mM, pH 7.4 HEPES buffer containing 0.1% Tween 20 was pipetted in a quartz cuvette, and allowed to equilibrate in the cell holder of the fluorimeter at 37° C. Ten μl of purified rat kidney enkephalinase was added and the increase in tryptophan or tyrosine fluorescence was continuously monitored (excitation=280 nm, emission=360 nm for tryptophan, excitation 277, emission 315 for tyrosine). To minimize oxidation of tryptophan the intensity of excitation was reduced by adjusting the fluorimeter shutter so that a 10^-4 M solution of tryptophan in water gave a fluorescence of 20.0 with excitation set at 280 nm, emission at 360 nm, both slits at 2 nm, and sensitivity at 0.1. Under these conditions, tryptophan fluorescence was stable for over 2 hr.
(§2) The kinetic parameters for the hydrolysis of dansyl-Gly-Trp-Gly, dansyl-Gly-Tyr-Gly and Dansyl-Gly-Tyr-Gly-NH2 by purified rat kidney enkephalinase were measured by incubating increasing concentrations of the substrates with the enzyme and stopping the reaction by the addition of EDTA before fluorescence measurements were taken (Table 4).
(§3) Km and kcat values for substrates III, IV and V were obtained by measuring the increase in tryptophan or tyrosine fluorescence after 1 hr. incubations of increasing concentrations of substrates (from 1 μM to 1 mM) with 1 ng purified enzyme at 37° C. The kcat values for these substrates and peptides I and II were also obtained by HPLC analysis of 1 hr. incubations of 1 mM peptides with 200 ng (substrate I), 50 ng (substrates II and V), or 10 ng (substrates III and IV) enzyme. The kcat values obtained by both methods for substrates III, IV and V were in close agreement.

Substrate in series [2]: CC(=O)NCC(=O)N[C@@H](Cc1c[nH]c2ccccc12)C(=O)NCC(=O)O
The settings on record: other: peptides I and II: HPLC analysis of 1 hr incubations of 1 mM peptide with 200 ng (I) or 50 ng (II) enzyme; pH 7.4; 37.0 °C. Here is the method:
as §1, §2, §3

Substrate in series [3]: CN(C)c1cccc2c(S(=O)(=O)NCC(=O)N[C@@H](Cc3ccc(O)cc3)C(=O)NCC(=O)O)cccc12
The settings on record: other: fluorescence after 1 hr incubation, 1 μM to 1 mM substrate, 1 ng purified enzyme, 37° C., pH 7.4. As for the experimental part: as §1, §2, §3

Substrate in series [4]: CN(C)c1cccc2c(S(=O)(=O)NCC(=O)N[C@@H](Cc3ccc(O)cc3)C(=O)NCC(N)=O)cccc12
The settings on record: other: fluorescence after 1 hr incubation, 1 μM to 1 mM substrate, 1 ng purified enzyme, 37° C., pH 7.4. Here is the method:
as §1, §2, §3

Substrate in series [5]: CN(C)c1cccc2c(S(=O)(=O)NCC(=O)N[C@@H](Cc3c[nH]c4ccccc34)C(=O)NCC(=O)O)cccc12
Particulars: other: fluorescence after 1 hr incubation, 1 μM to 1 mM substrate, 1 ng purified enzyme, 37° C., pH 7.4. As for the experimental part: as §1, §2, §3

B1: purified rat kidney enkephalinase (Rattus norvegicus) (protein)
chain: MGRSESQMDITDINAPKPKKKQRWTPLEISLSVLVLLLTIIAVTMIALYATYDDGICKSSDCIKSAARLIQNMDASAEPCTDFFKYACGGWLKRNVIPETSSRYSNFDILRDELEVILKDVLQEPKTEDIVAVQKAKTLYRSCINESAIDSRGGQPLLTLLPDIYGWPVASQNWEQTYGTSWTAEKSIAQLNSKYGKKVLINFFVGTDDKNSTQHIIHFDQPRLGLPSRDYYECTGIYKEACTAYVDFMISVARLIRQEQRLPIDENQLSLEMNKVMELEKEIANATTKPEDRNDPMLLYNKMTLAKLQNNFSLEINGKPFSWSNFTNEIMSTVNINIQNEEEVVVYAPEYLTKLKPILTKYSPRDLQNLMSWRFIMDLVSSLSRNYKESRNAFRKALYGTTSETATWRRCANYVNGNMENAVGRLYVEAAFAGESKHVVEDLIAQIREVFIQTLDDLTWMDAETKKKAEEKALAIKERIGYPDDIISNENKLNNEYLELNYKEEEYFENIIQNLKFSQSKQLKKLREKVDKDEWISGAAVVNAFYSSGRNQIVFPAGILQPPFFSARQSNSLNYGGIGMVIGHEITHGFDDNGRNFNKDGDLVDWWTQQSANNFKDQSQCMVYQYGNFTWDLAGGQHLNGINTLGENIADNGGIGQAYRAYQNYVKKNGEEKLLPGLDLNHKQLFFLNFAQVWCGTYRPEYAVNSIKTDVHSPGNFRIIGTLQNSAEFADAFHCRKNSYMNPERKCRVW
notes: Rat kidney enkephalinase was purified to apparent homogeneity; from tissue; host or cells: rat kidney (male rats, membrane fraction, Triton X-100 solubilised)
Broadly, the kcat is the number of substrate molecules converted per active site and unit of time at saturation. In general, Km refers to the concentration of substrate that gives half-maximal velocity. As usually defined, the kcat/Km is the second-order rate constant that governs catalysis at low substrate concentration. As to B1, the kcat amounted to 0.883 s⁻¹ in series [1]; 3.63 s⁻¹ in series [2]; 19.05 s⁻¹ in series [3]; 4.13 s⁻¹ in series [4]; 15 s⁻¹ in series [5]. In addition, the Michaelis-Menten constant (Km) was 41 µM in series [3], 90 µM in series [4] and 30 µM in series [5]. The specificity constant (kcat/Km) came out at 467000 M⁻¹ s⁻¹ in series [3], 50000 M⁻¹ s⁻¹ in series [4] and 500000 M⁻¹ s⁻¹ in series [5].

Values taken from patent US5780025A, “Compositions and methods for the synthesis and assay of enkephalinase” (Genentech, Inc., priority 1993, dated 1998).
